# Data taken from doi:10.1101/2025.05.02.651952 (bioRxiv, 2025).
# B1: Sis1-WT (natural protein)
# chain: MVKETKLYDLLGVSPSANEQELKKGYRKAALKYHPDKPTGDTEKFKEISEAFEILNDPQKREIYDQYGLEAARSGGPSFGPGGPGGAGGAGGFPGGAGGFSGGHAFSNEDAFNIFSQFFGGSSPFGGADDSGFSFSSYPSGGGAGMGGMPGGMGGMHGGMGGMPGGFRSASSSPTYPEEETVQVNLPVSLEDLFVGKKKSFKIGRKGPHGASEKTQIDIQLKPGWKAGTKITYKNQGDYNPQTGRRKTLQFVIQEKSHPNFKRDGDDLIYTLPLSFKESLLGFSKTIQTIDGRTLPLSRVQPVQPSQTSTYPGQGMPTPKNPSQRGNLIVKYKVDYPISLNDAQKRAIDENF
# B2: Sis1-[change] (natural protein)
# chain: MVKETKLYDLLGVSPSANEQELKKGYRKAALKYHPDKPTGDTEKFKEIVEAFEILNDPQKREIYDQYGLEAARSGGPSFGPGGPGGAGGAGGFPGGAGGFSGGHAFSNEDAFNIFSQFFGGSSPFGGADDSGFSFSSYPSGGGAGMGGMPGGMGGMHGGMGGMPGGFRSASSSPTYPEEETVQVNLPVSLEDLFVGKKKSFKIGRKGPHGASEKTQIDIQLKPGWKAGTKITYKNQGDYNPQTGRRKTLQFVIQEKSHPNFKRDGDDLIYTLPLSFKESLLGFSKTIQTIDGRTLPLSRVQPVQPSQTSTYPGQGMPTPKNPSQRGNLIVKYKVDYPISLNDAQKRAIDENF
# B3: Sis1-[change] (natural protein)
# chain: MVKETKLYDLLGVSPSANEQELKKGYRKAALKYHPDKPTGDTEKFKEISEAFAILNDPQKREIYDQYGLEAARSGGPSFGPGGPGGAGGAGGFPGGAGGFSGGHAFSNEDAFNIFSQFFGGSSPFGGADDSGFSFSSYPSGGGAGMGGMPGGMGGMHGGMGGMPGGFRSASSSPTYPEEETVQVNLPVSLEDLFVGKKKSFKIGRKGPHGASEKTQIDIQLKPGWKAGTKITYKNQGDYNPQTGRRKTLQFVIQEKSHPNFKRDGDDLIYTLPLSFKESLLGFSKTIQTIDGRTLPLSRVQPVQPSQTSTYPGQGMPTPKNPSQRGNLIVKYKVDYPISLNDAQKRAIDENF
# B4: Sis1-[change] (natural protein)
# chain: MVKETKLYDLLGVSPSANEQELKKGYRKAALKYHPDKPTGDTEKFKEISEAFKILNDPQKREIYDQYGLEAARSGGPSFGPGGPGGAGGAGGFPGGAGGFSGGHAFSNEDAFNIFSQFFGGSSPFGGADDSGFSFSSYPSGGGAGMGGMPGGMGGMHGGMGGMPGGFRSASSSPTYPEEETVQVNLPVSLEDLFVGKKKSFKIGRKGPHGASEKTQIDIQLKPGWKAGTKITYKNQGDYNPQTGRRKTLQFVIQEKSHPNFKRDGDDLIYTLPLSFKESLLGFSKTIQTIDGRTLPLSRVQPVQPSQTSTYPGQGMPTPKNPSQRGNLIVKYKVDYPISLNDAQKRAIDENF
# B5: Sis1-[change] (natural protein)
# chain: MVKETKLYDLLGVSPSANEQELKKGYRKAALKYHPDKPTGDTEKFKEISEAFEILLDPQKREIYDQYGLEAARSGGPSFGPGGPGGAGGAGGFPGGAGGFSGGHAFSNEDAFNIFSQFFGGSSPFGGADDSGFSFSSYPSGGGAGMGGMPGGMGGMHGGMGGMPGGFRSASSSPTYPEEETVQVNLPVSLEDLFVGKKKSFKIGRKGPHGASEKTQIDIQLKPGWKAGTKITYKNQGDYNPQTGRRKTLQFVIQEKSHPNFKRDGDDLIYTLPLSFKESLLGFSKTIQTIDGRTLPLSRVQPVQPSQTSTYPGQGMPTPKNPSQRGNLIVKYKVDYPISLNDAQKRAIDENF
# Tests used:
# [1] = target: Ssa1-WT (yeast, UniProt P10591 1-642); experiment: ELISA
# [2] = target: firefly luciferase (denatured) (firefly, UniProt P08659 1-550 = luciferase); experiment: ELISA
# Chain of firefly luciferase (denatured) (P08659 whole entry): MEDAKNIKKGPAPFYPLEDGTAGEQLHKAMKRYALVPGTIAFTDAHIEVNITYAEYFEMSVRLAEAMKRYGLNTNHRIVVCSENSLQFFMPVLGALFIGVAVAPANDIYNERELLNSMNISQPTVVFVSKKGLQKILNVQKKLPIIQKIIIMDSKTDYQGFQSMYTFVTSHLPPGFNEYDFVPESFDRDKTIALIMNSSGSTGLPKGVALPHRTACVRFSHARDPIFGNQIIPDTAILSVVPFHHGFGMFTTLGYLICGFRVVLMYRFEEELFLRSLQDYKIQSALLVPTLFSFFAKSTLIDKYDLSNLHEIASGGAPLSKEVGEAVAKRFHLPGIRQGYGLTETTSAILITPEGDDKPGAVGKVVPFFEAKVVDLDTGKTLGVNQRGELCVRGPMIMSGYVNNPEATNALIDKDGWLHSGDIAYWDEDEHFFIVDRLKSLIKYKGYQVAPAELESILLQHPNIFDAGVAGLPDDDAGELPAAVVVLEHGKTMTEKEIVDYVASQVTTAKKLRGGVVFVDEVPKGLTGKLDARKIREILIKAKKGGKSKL
# Chain of Ssa1-WT (P10591 whole entry): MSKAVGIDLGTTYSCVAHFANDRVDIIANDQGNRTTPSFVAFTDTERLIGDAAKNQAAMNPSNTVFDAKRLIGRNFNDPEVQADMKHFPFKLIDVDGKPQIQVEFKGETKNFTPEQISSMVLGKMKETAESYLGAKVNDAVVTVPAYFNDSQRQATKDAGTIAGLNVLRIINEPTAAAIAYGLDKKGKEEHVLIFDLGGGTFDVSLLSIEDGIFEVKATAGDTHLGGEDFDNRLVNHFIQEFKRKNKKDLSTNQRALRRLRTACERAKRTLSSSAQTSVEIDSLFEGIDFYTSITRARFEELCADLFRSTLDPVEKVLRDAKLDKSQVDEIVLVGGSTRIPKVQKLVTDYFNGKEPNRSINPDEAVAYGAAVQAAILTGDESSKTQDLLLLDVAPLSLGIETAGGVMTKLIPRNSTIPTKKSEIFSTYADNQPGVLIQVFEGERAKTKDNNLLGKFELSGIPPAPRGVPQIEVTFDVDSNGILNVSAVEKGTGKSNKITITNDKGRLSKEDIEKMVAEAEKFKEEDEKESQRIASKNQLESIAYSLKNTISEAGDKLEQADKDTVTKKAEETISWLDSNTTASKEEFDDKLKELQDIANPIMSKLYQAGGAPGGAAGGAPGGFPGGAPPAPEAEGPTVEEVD
Binder,binding result [1],binding result [2]
B1,binds,binds
B2,binds,binds
B3,binds,binds
B4,binds,binds
B5,binds,binds
